Assay [1] deals with T1, His tagged hFn14 extracellular region mutant R56P (human, UniProt Q9NP84 28-77).
T1 construct: also called R56P mutant; not shown: (His)6 tag
The assay can be described thus: ELISA with purified His-tagged hFn14 R56P; x axis 'Log (c)' without unit, µg/ml by the legend. For orientation: ELISA stands for enzyme-linked immunosorbent assay.

For assay [2], the target named is phage expressed hFn14 mutant H60A (human, UniProt Q9NP84 28-77). The experiment in a line: phage ELISA (Method 2): antibody coated on the plate, 10-fold dilutions of phage displaying hFn14 H60A; biotin anti-M13 antibody, streptavidin-HRP, TMB, OD 450 nm; x axis = dilution of phage. On the procedure:
(§1) ELISAs showing the reactivity of mutant H60A and H60K hFn14 phage constructs with the anti-Fn14 monoclonal antibodies CRCBT-06-001, CRCBT-06-002, CRCBT-06-004 compared to ITEM-1 and ITEM-4. ITEM-2 was assessed on H60K. Binding was detected using Biotin-conjugated anti-M13-phage monoclonal antibody followed by HRP-conjugated Streptavidin and TMB substrate. Optical density at 450 nm was quantified using a Spectramax spectrophotometer. Error bars for each dilution represent the standard deviation of duplicate assays. X axis=dilution of phage. Methods according to Epitope mapping using phage expressed Fn14—Method 2.
The wells of Maxisorp immunoplates (Nunc) were coated overnight at 4° C. with the target monoclonal antibodies or recombinant Tweak-Fc at a concentration of 1.5 μg/ml in PBS. mAb 5G8 was used as a negative control for ELISA plates coated with tested antibodies. […] 10-fold serial dilutions of phage were made using PBS solution and phage dilutions were added to the coated, blocked ELISA plates for 1 hour, shaking at room temperature. Phage was subsequently removed from the wells and the ELISA plates were washed three times with PBS/0.05% Tween 20.
Method A: HRP-conjugated anti-M13-phage antibody (GE Healthcare) at a 1/5000 dilution in PBS was then added to the wells of the ELISA plates for 1 hour, shaking at room temperature. […]

In assay [3] the target is phage expressed hFn14 mutant D51A (human, UniProt Q9NP84 28-77). The assay can be described thus: phage ELISA (Method 2): antibody coated on the plate, 10-fold dilutions of phage displaying hFn14 D51A; biotin anti-M13 antibody, streptavidin-HRP, TMB, OD 450 nm; x axis = dilution of phage.
Description: as §1, with “mutant” for “mutant H60A and H60K”, “ITEM-4.” for “ITEM-4. ITEM-2 was assessed on H60K.”, “assays. FIG. 28A L46A, FIG. 28B D51A and FIG. 28C D62A. In all cases error bars represent the standard deviation.” for “assays.”
(§2) The wells of Maxisorp immunoplates (Nunc) were coated overnight at 4° C. with the target monoclonal antibodies or recombinant Tweak-Fc at a concentration of 1.5 μg/ml in PBS. mAb 5G8 was used as a negative control for ELISA plates coated with tested antibodies. […] 10-fold serial dilutions of phage were made using PBS solution and phage dilutions were added to the coated, blocked ELISA plates for 1 hour, shaking at room temperature. […]
(§3) Method A: HRP-conjugated anti-M13-phage antibody (GE Healthcare) at a 1/5000 dilution in PBS was then added to the wells of the ELISA plates for 1 hour, shaking at room temperature. […] Optical density at 450 nm was quantified using a Spectramax absorbance spectrophotometer.

The target in assay [4] is T2, synthetic peptide hFn14 sub-domain 3 (human, cysteine pairing not given here).
T2 construct: also called sub-domain 3 peptide
T2 peptide: ASCRARPHSDFCLGK(Biotin)
The assay can be described thus: ELISA on biotinylated sub-domain 3 peptide, mAb at 0.2 ug/ml. On the procedure: An additional lysine residue was added to the C-terminus in order to attach a biotin moiety and to enable the peptides to bind to neutravidin coated plates (Pre-blocked; Pierce). For these experiments, a control peptide with a biotin at the C-terminus was used as a negative control and isotype control antibodies were also used.
The ELISA was performed essentially according to the manufacturer's recommended protocol (Pierce). Briefly, peptide was coated onto wells (in duplicate) at 1-10 μg/ml for 2 hours at room temperature. Wells were washed in PBS/0.05% Tween 20/0.1% BSA 3 times and dilutions of each antibody were added in wash buffer for 1 hour with gentle agitation. After another three washes anti-mouse HRP-conjugated to horse radish peroxidase (HRP; Chemicon) was added at 1/1000 dilution for 1 hour shaking. Finally, after 4 further washes the plate was developed using TMB (3,3′,5,5′-tetramethylbenzidine) substrate (Pierce), and the reaction was stopped using 2M H2SO4 solution. Optical density at 450 nm was quantified using a Spectromax absorbance spectrophotometer.
The reactivity of CRCBT-06-001 CRCBT-06-002, CRCBT-06-003, CRCBT-06-004, CRCBT-06-005, CRCBT-06-006 and CRCBT-06-007 with sub-domain 3 was lower than for sub-domain 2, indicating this region may be a partial epitope for these antibodies. However, the differences in binding to this region could reveal subtle variations in the contact regions of the antibodies with hFn14. The order of binding from strongest to weakest was CRCBT-06-005, CRCBT-06-002, CRCBT-06-001, CRCBT-06-006, CRCBT-06-007 and ITEM-1. The relative binding of each antibody to sub-domain 3 at a single point in the linear region of the curves was measured at 0.2 µg/ml (FIG. 21C). […] This could indicate the epitope of ITEM-1 may differ slightly to the CRCBT antibodies based on weaker interaction with surface exposed residues in sub-domain 3.

Assay [5] has as its target phage expressed hFn14 mutant L46A (human, UniProt Q9NP84 28-77). The experiment in a line: phage ELISA (Method 2): antibody coated on the plate, 10-fold dilutions of phage displaying hFn14 L46A; biotin anti-M13 antibody, streptavidin-HRP, TMB, OD 450 nm; x axis = dilution of phage.
Description: as §1, with “mutant” for “mutant H60A and H60K”, “ITEM-4.” for “ITEM-4. ITEM-2 was assessed on H60K.”, “assays. FIG. 28A L46A, FIG. 28B D51A and FIG. 28C D62A. In all cases error bars represent the standard deviation.” for “assays.”
as §2, §3

We go through 2 molecules from US20200239586A1 (LA TROBE UNIVERSITY, published 2020).

Ends that are not written are not given here. * marks the point of attachment. Biotin = O=C1N[C@H]2[C@H](CS[C@H]2CCCCC(=O)*)N1

phage expressed hFn14 mutant H60A, sequence (Q9NP84 28-77 H60A): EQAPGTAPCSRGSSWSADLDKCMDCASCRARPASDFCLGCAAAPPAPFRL
phage expressed hFn14 mutant L46A, sequence (Q9NP84 28-77 L46A): as the sequence (Q9NP84 28-77 H60A) above, with L19A, A33H counted along it
phage expressed hFn14 mutant D51A, sequence (Q9NP84 28-77 D51A): as the sequence (Q9NP84 28-77 H60A) above, with D24A, A33H counted along it

B1: CRCBT-06-001 (antibody, IgG2b, V domains shown)
VH: QVQLQQSGGGLVQPGGSMKLSCIASGFTFSSYWMSWVRQSPEKGLEWVAEIRSKSDNYATHYAESVKGKFTISRDDSKSRFFLQMNNLRAEDTGIYYCSSTYADYFHYWGQGTDLTVSS
VL: DIVMTQTPASLAVSLGQRATISCRASQSVSTSTYSYMHWYQQKPGQPPKLLIKYASSLESGVPARFSGSGSGTDFTLNIHPVEEDDTATYYCQHSWEIPYTFGGGTKLEIKR
For B1, the binding result in assay [1], in assay [2], in assay [3] and in assay [5] was “binds” throughout. Moreover, the “% decrease in binding compared with CRCBT-06-005” value in assay [4] stood at 60%.

B2: CRCBT-06-002 (antibody, IgG1, V domains shown)
VH: EVKLQQSGGGLVQPGGSMKLSCVASGFTFSYYWMNWVRQSPEQGLEWIAEIRLQSNDYPTHYAESVKGRFTISRDDSKNSVYLQMNNLRPEDTGIYYCACRYADYFDHWGQGTTLTVSS
VL: DTVLTQSPASLVVSLGQRATISCRASQSVSTSDYSYIHWYQQKPGQPPKFLIKYASNRDSGVPARFSGSGSGTDFTLNIHPVEEDDTAIYYCQHSWEIPPTFGAGTKLELQR
Consider B2, for which the binding result in assay [1], in assay [2], in assay [3] and in assay [5] was “binds” each time. Besides, in assay [4], the “% decrease in binding compared with CRCBT-06-005” value was determined as 43%.
